Target: G protein-coupled bile acid receptor 1 (GPBAR1), full-length human, with N-terminal FLAG and BRIL (human) (UniProt Q8TDU6)
Assay: mass photometry; samples in 20 mM HEPES, 150 mM NaCl, 0.02%/0.002% LMNG/CHS, drop-diluted in PBS to 10 nM (apo-GPBAR1) and 30 nM (GPBAR1/Gs complex with P395 and Nb35); room temperature (18 °C)

Chain of UniProt Q8TDU6 (Q8TDU6 whole entry): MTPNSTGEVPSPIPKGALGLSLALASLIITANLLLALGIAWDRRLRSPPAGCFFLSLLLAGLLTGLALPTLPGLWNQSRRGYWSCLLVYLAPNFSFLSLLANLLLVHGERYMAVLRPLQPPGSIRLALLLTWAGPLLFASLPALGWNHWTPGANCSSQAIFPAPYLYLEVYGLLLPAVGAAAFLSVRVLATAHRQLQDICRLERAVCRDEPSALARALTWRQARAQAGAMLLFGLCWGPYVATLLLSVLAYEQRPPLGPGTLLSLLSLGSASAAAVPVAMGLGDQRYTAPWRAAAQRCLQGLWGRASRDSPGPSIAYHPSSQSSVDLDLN

“Gs heterotrimer (Gαs, Gβ1, Gγ2) (from UniProt P63096 1-18; P63092 16-394; P62873 2-340; P59768 1-71) (complex)” showed a stoichiometry N of 1.

Reference: PMC12381156
